Results as given in patent US20260132194A1 (XBIOTECH, published 2026).

Target: T1, recombinant human interleukin 1 alpha (IL-1α) (human, UniProt P01583 113-271)
T1 sequence (looked up): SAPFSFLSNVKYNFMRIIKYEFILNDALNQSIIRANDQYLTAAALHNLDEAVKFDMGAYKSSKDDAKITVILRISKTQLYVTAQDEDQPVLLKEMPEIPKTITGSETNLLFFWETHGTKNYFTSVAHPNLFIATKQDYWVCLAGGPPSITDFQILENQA
Test: cell-based or functional assay

B1: XIA14 human monoclonal antibody (antibody, V domains shown)
VH: QVQLVQSGAEVKKPGSSVKVSCKASGGRFTNYAILWVRQAPGQGLQWLGGIIPIFDETDHAQDFQDRLTITVDESMTTAYMELSSLRPEDTAIYYCATGSNSYYGLYWGQGTLVTVSS
VL: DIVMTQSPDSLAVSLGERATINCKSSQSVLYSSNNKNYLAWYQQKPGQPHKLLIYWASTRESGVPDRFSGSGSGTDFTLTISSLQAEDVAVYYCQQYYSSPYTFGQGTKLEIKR
- HUVEC-based potency assay IC50 (ICAM-1 expression by flow cytometry): 5 ng/mL
